Experimental data as given in patent US20240327505A1 (published 2024).

Tests used:
[1] = molecular target: SARS-CoV-2 spike S1 protein (SARS-CoV-2, UniProt P0DTC2 16-685)
[2] = molecular target: SARS-CoV-2 Spike (S) trimer (SARS-CoV-2, UniProt P0DTC2 16-1213); assay: ELISA on coated S trimer, 1:50
[3] = molecular target: SARS-CoV-2 spike S1 protein (SARS-CoV-2, UniProt P0DTC2 16-685); remark: listed apart in the source
[4] = molecular target: SARS-CoV-2 spike receptor-binding domain (RBD) (SARS-CoV-2, UniProt P0DTC2 319-541)
[5] = molecular target: SARS-CoV-2 spike S2 protein (SARS-CoV-2, UniProt P0DTC2 686-1213)

| Binder | OD 450 nm [2] [OD] | Kd [3] [nM] | koff [3] [s⁻¹] | kon [3] [M⁻¹ s⁻¹] | koff [4] [s⁻¹] | further results |
| --- | --- | --- | --- | --- | --- | --- |
| AB-009769 (antibody, V domains shown) VH: EVQLVESGGGLVQPGGSLRLSCAASGFTFSSYWMSWVRQAPGKGLEWVANIKQDGSEKYYVDSVKGRFTISRDNAKNSLYLQMNSLRAEDTAVYYCARSPEVLWFGDPVLDNWFDPWGQGTLVTVSS VL: SYELTQPPSVSVSPGQTARITCSGDALPKQYAYWYQQKPGQAPVLVIYKDSERPSGIPERFSGSSSGTTVTLTISGVQAEDEADYYCQSADSSGTYPVVFGGGTKLTVL | – | – | – | – | – | Kd [1]: 106 nM; koff [1]: 0.00194 s⁻¹; kon [1]: 18400 M⁻¹ s⁻¹ |
| AB-009343 (antibody, V domains shown) VH: QAQLVESGGGVVQPGRSLRLSCAASGFTFNNHGMHWVRQVPGKGLEWVAVISYEGSKKDYADSVKGRFSISRDNSKQTVYLQMNSLRVEDTAVYYCAKDAAIFMIYPSRYFDLWGRGTLLTVSS VL: SYELTQPPSMSVSPGQTASITCSGYILGDVSASWYQQKPGQSPVLIIYQDTKRPSGIPDRFSGSDSGNTATLTISGTQATDEADYYCQAWDSRTHVVFGGGTKLTVL | 0.459 | – | – | – | – | – |
| AB-009747 (antibody, V domains shown) VH: QVQLVESGGGVVQPGGSLRLSCAASGFTFSNYGMHWVRQAPGKGLEWVAFIRYDGSNEYYADSVKGRFTISRDNSKNTLYLHMNSLRPEDTAVYYCAKQGLLSNYYYGMDVWGQGTTVTVSS VL: not shown | – | 45.2 | 0.00379 | 83700 | 0.00105 | – |
| AB-009110 (antibody, V domains shown) VH: QVQLVQSGAEVKEPGASVKVSCNASGYIFTSYGISWVRQAPGQGLEWVGWISGNNGNTNYAQKFQGRVTLTTDTSTSTAYLELRSLTSADTGVYFCARARLPSAYWGPGTLLTVSS VL: EILLTQSPATLSVSPGERGSLSCRASQSVGTNLAWYQQKPGQAPRLLIYGASARATGIPARFSGSGSGTEFTLTISSLQSEDFGVYYCQQYNDWPPWTFGQGTKVEIK | 0.081 | – | – | – | – | – |
| AB-009616 (antibody, V domains shown) VH: not shown VL: SYVLTQPPSVSVAPGKTARITCGGNNIGSKSVHWYQQKPGQAPVLVVYDDSDRPSGIPERFSGSNSGNTATLTISRVEAGDEADYYCQVWDSSSDPWVFGGGTKLTVL | – | 13.3 | 0.000755 | 56900 | 0.000287 | Kd [4]: 3 nM; kon [4]: 95800 M⁻¹ s⁻¹ |
| AB-009661 (antibody, V domains shown) VH: QVQLVESGGGVVQPGRSLRLSCAASGFTFSSYGMHWVRQAPGKGLEWVAVISYDGSNKYYADSVKGRFTISRDNSKNTLYLQMNSLRAEDTAVYYCAKDYGDYGGMDVWGQGTTVTVSS VL: not shown | – | – | – | – | – | Kd [1]: 84 nM; koff [1]: 0.00428 s⁻¹; kon [1]: 51000 M⁻¹ s⁻¹ |
| AB-009083 (antibody, V domains shown) VH: EVHLLESGGGLVQPGGSLTLTCAASGFSFGNYVMGWVRQAPGKGLEWVSSIFGSGANPHYGGSVKGRFTISRDNSQNTLFLQMDSLTAEDTAVYYCARDGGTMVGGIITGGFNYFDSWGQGTLVTVSS VL: EIVLTQSPASLSLSPGGWATLSCRASRSIGNSLAWYQQRPGQAPRLLIYDASNRATGIPARFSGSGSGTDFTLTISSLEPEDFAIYYCQQRNSWPPLYTFGQGTKLEIK | 0.249 | – | – | – | – | Kd [5]: 0.164 nM; koff [5]: 4.95e-07 s⁻¹; kon [5]: 3010 M⁻¹ s⁻¹ |
| AB-009620 (antibody, V domains shown) VH: QITLKESGPTLVKPTQTLTLTCTFSGFSLSTSGVGVGWIRQPPGKALEWLALIYWDDDKRYSPSLKSRLTITKDTSKNQVVLTMTNMDPVDTATYYCAHHEVATVFDYWGQGTLVTVSS VL: QSALTQPASVSGSPGQSITISCTGTSSDVGAYNYVSWYQQHPGKAPKLMIYEVSNRPSGVSNRFSGSKSGNTASLTISGLQAEDEADYYCSSYTSSSTVFGGGTKLTVL | – | – | – | – | – | Kd [1]: 27.5 nM; koff [1]: 0.00078 s⁻¹; kon [1]: 28400 M⁻¹ s⁻¹ |
| AB-009080 (antibody, V domains shown) VH: QVQLQQWGAGLLKPSETLSLTCAVYGGSFSGYYWSWIRQPPGKGLEWIGEINHSGSTNYNPSLKSRVTISVDTSKNQFSLKLSSVTAADTAVYYCARGLPVTTFYYYYYGMDVWGQGTTVTVSS VL: not shown | 0.166 | – | – | – | – | Kd [5]: 0.111 nM; koff [5]: 2.79e-07 s⁻¹; kon [5]: 2520 M⁻¹ s⁻¹ |
| AB-009221 (antibody, V domains shown) VH: EVQLVESGGGLVQPGGSLRLSCAASGFTVSSNYMSWVRQAPGKGLEWVSVIYSGGSTYYADSVKGRFTISRHNSKNTLYLQMNSLRAEDTAVYYCARDRNAFDIWGQGTMVIVSS VL: DIQMTQSPSSLSASVGDRVSITCQASQDISNDLNWYQQKPGKAPKLLVYDASKLETGVPPRFSGSGSGTDFTFTISSLQPEDIATYYCQQYDNLPLYSFGQGTKLEIK | – | 34 | 0.00128 | 37700 | 0.00121 | Kd [4]: 26.4 nM; kon [4]: 45800 M⁻¹ s⁻¹ |
| AB-009760 (antibody, V domains shown) VH: EVQLVQSGAEVKKPGESLKISCKGSGYSFTSYWIGWVRQMPGKGLEWMGIIYPGDSDTRYSPSFQGQVTISADKSISTAYLQWSSLKASDTAMYYCARSRSSDYFDYWGQGTLVTVSS VL: not shown | – | – | – | – | – | Kd [1]: 4.16 nM; koff [1]: 0.000267 s⁻¹; kon [1]: 64000 M⁻¹ s⁻¹ |
| AB-009361 (antibody, V domains shown) VH: EVQLVESGGGLAQPGGTLRLSCTGYGFIFNNYGLTWVRQAPGKGLEWLSVLSGSSYIKYEADSVRGRFTISRDNSKNTLYLEMNSLTAEDTAVYYCARKGVGSQDYGLDVWGQGTTVIVSS VL: QSVLAQPPSASETPGQSVTISCSGSTSNIGSNFVYWYQQLPGTAPKLLIYRNTQRPSGVPDRFSGSKSATSASLAISGLRPEDEADYYCAAWDDSLSGGVFGTGTKVTVL | 1.39 | – | – | – | – | – |
| AB-009329 (antibody, V domains shown) VH: QLQLQESGPGLVKPSETLSLTCTVSGGSISSSSYYWGWIRQPPGKGLEWIGSIYYSGSTYYNPSLKSRVTISVDTSKNQFSLKLSSVTAADTAVYYCARHKMGWLQFAGWFDPWGQGTLVTVSS VL: SSELTQDPAVSVALGQTVRITCQGDSLRSYYASWYQQKPGQAPVLVIYGKNNRPSGIPDRFSGSSSGNTASLTITGAQAEDEADYYCNSRDSSGNHWVFGGGTKLTVL | 0.235 | – | – | – | – | – |
| AB-009269 (antibody, V domains shown) VH: QVQLVQSGAEVKKPGASVKVSCKASGYTFTSYGISWVRQAPGQGLEWMGWISAYNGNTNYAQKLQGRVTMTTDTSTSTAYMELRSLRSDDTAVYYCAREGDCSGGSCYSGYYYYYGMDVWGQGTTVTVSS VL: EIVLTQSPATLSLSPGERATLSCRASQSVSSYLAWYQQKPGQAPRLLIYDASNRATGIPARFSGSGSGTDFTLTISSLEPEDFAVYYCQQRSNWGTFGPGTKVDIK | – | 16.7 | 0.000643 | 38500 | 0.000675 | Kd [4]: 12 nM; kon [4]: 56300 M⁻¹ s⁻¹ |
| AB-009364 (antibody, V domains shown) VH: QVQLVESGGGVVQPGRSLRLSCAASGFTFSSYAMHWVRQAPGKGLEWVAVISYDGSNKYYADSVKGRFTISRDNSKNTLYLQMNSLRAEDTAVYYCARDPDYYDSSSDAFDIWGQGTMVTVSS VL: not shown | 1.06 | – | – | – | – | – |
| AB-009666 (antibody, V domains shown) VH: EVQLVESGGGLVQPGGSLRLSCAASGFTFSSYDMHWVRQATGKGLEWVSTIGTAGDTYYPGSVKGRFTISRENAKNSLYLQMNSLRAEDTAVYYCARVNYDSSGYPTYWYFDLWGRGTLVTVSS VL: DIQMTQSPSSLSASVGDRVTITCRASQSISRYLNWYQQKPGKAPKLLIYAASSLQSGVPSRFSGSGSGTDFTLTISSLQPEDFATYNCQQSYSSPPWTFGQGTKVEIK | – | 11.9 | 0.000546 | 45900 | 0.00062 | Kd [4]: 3.04 nM; kon [4]: 204000 M⁻¹ s⁻¹ |
